Test results published in patent US20210147531A1 (AstraZeneca / MedImmune, published 2021).
“And” between values parts separate entries of the source, which are not always exact repeats. Equal entries are not always repeated. One block for each binder: values may come before it.

Assays:
human VEGF165 [1] = target: T1, human VEGF165 (human, UniProt P15692-4 27-191); experiment: capture ELISA, Fab on anti-Fd, biotinylated VEGF165
T1 construct: the isoform is VEGF165; also called huVEGF; recombinant VEGF165
Protocol: (§1) Briefly, this capture ELISA involved coating individual wells of a 96-well Maxisorp Immunoplate with approximately 50 ng of a sheep anti-human Fd antibody (Biodesign International, ME) in a carbonate buffer at pH 8.5 overnight at 4° C. The next day, the plate was blocked with 3% BSA in PBS buffer for 1 hour at room temperature. Fab supernatant was then added to the plate and incubated at room temperature for 1 hour. After washing, the biotinylated VEGF165 protein was added to the well and the mixture was incubated for 1.5 hours at room temperature. This was followed by incubation with neutravidin-horseradish peroxydase (HRP) conjugate (Pierce, Ill.) for approximately 40 minutes at room temperature. HRP activity was detected with tetra-methyl-benzidine (TMB) substrate and the reaction quenched with 0.2 M H2SO4. Plates were read at 450 nm.
(§2) The Fab concentration was determined by comparing the ELISA signals with the signals generated by the reference Fab.

mouse VEGF164 [2] = target: T2, mouse VEGF164 (mouse, UniProt Q00731-2 27-190); experiment: ELISA on murine VEGF164 (Example 7), O.D. 450 nm against antibody concentration, 4-parameter fit
T2 construct: also called mVEGF164; murine VEGF164
T2 sequence (looked up): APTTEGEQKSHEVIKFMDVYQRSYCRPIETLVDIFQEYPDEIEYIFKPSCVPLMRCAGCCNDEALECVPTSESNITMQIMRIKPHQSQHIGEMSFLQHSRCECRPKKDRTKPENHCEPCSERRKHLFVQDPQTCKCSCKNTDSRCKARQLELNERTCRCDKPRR
Protocol: (§3) EC50 values were determined using non-linear regression analysis (log dose response, 4-parameter fit curves) in GraphPad Prism, version 5.01 (San Diego, Calif.).

human VEGF121 = target: T3, human VEGF121 (human, UniProt P15692-9 27-147); experiment: ELISA on human VEGF121 (Example 8), OD 450 nm against antibody concentration, 4-parameter fit
T3 construct: the isoform is VEGF121
T3 sequence (looked up): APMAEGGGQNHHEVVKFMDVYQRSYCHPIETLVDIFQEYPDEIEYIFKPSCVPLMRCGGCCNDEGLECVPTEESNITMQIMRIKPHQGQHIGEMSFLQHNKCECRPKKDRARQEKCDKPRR
Protocol: as §3

human VEGF165 [3] = target: T1, human VEGF165; experiment: KinExA, IgG in solution, huVEGF165-coated beads
Protocol: Coated beads were then separated (spin) from unreacted huVEGF protein solution, and blocked with 1M Tris, pH 8, containing BSA at 10 mg/mL), for approximately 15 minutes at room temperature. After this, the bead slurry was spun to remove the blocking solution, and then the block step was repeated for approximately 2 hours using fresh block buffer, and stored at 4° C. until used. Prior to use, the huVEGF-coated beads were transferred to a bead vial, resuspended in approximately 27 mLs of instrument buffer (10 mM HEPES+300 mM NaCl+5 mM CaCl₂+0.05% P20+0.02% NaN₃, pH8), and affixed to the KinExA instrument. […] These concentrations of mAbs were chosen to allow each KD measurement to be made under both receptor- and KD-controlled conditions, leading to more rigorous estimations of reagent activity and affinity, respectively. […] Two-fold serial dilutions of huVEGF protein were then titrated across 9 of the tubes in each mAb series, followed by two additional 10-fold-dilutions, leaving one tube as the mAb-only, “zero” control. […] Based on theory curve simulations available through the vendor software (Sapidyne Instruments, Boise, Idaho), the mixtures were incubated 1-4 days at room temperature to allow binding to reach equilibrium. At the end of this time, signal-testing experiments were conducted to determine the appropriate run conditions for each set of measurements.

human VEGF165 [4] = target: T1, human VEGF165; experiment: VEGF165 ELISA of purified IgGs, OD450 against ug/ml
human VEGF165 [5] = target: T1, human VEGF165; experiment: ELISA of Fabs at normalised concentrations on VEGF165 (Example 5), OD450 against Fab ug/ml
Protocol: as §1, §2

mouse VEGF164 [6] = target: T2, mouse VEGF164; experiment: ELISA, coated VEGF, IgG, anti-human-Fc-HRP
Protocol: (§4) The 96-well microtiter plates (Corning) were coated with 50 μl/well of human and mouse VEGF165 or VEGF121 at a concentration of 5 μg/ml in PBS at 4° C. overnight. After being washed three times with PBS containing 0.1% Tween-20 (PBST), the wells were blocked with blocking buffer (4% skimmed milk in PBS). After 1 h incubation at room temperature, the plates were washed with PBST and a 2-fold serial dilution of the antibodies (starting from 8 nM) in blocking buffer were added and incubated for 1 hour at room temperature. The antibody solution was removed by washing with PBST followed by 1 hour incubation at room temperature with a 1:3000 dilution of an anti-human-Fc-HRP antibody (Thermo Scientific) prepared in PBST. Binding was visualized with the addition of 50 μL of SureBlue Reserve TMB substrate (KPL) for 5 minutes at room temperature and the reaction was stopped by adding 50 μL of TMB Stop Solution (KPL). The absorbance at 450 nm was measured using a microtiter plate reader. The data were analyzed using Prism 5 software (GraphPad).

human VEGF165 [7] = target: T1, human VEGF165; experiment: ELISA, coated VEGF, IgG, anti-human-Fc-HRP
Protocol: as §4

B1: D04 Fab (Fab, V domains shown)
VH: EVQLLESGGGLVQPGGSLRLSCAASGFTFSWYEMYWVRQAPGKGLEWVSSISPSGGWTMYADSVKGRFTISRDNSKNTLYLQMNSLRAEDTAVYYCATPLYSSDGLSAGDIWGQGTMVTVSS
VL: EIVLTQSPATLSLSPGERATLSCRASQSVHSSYLAWYQQKPGQAPRLLIYGASSRATGIPDRFSGSGSGTDFTLTISRLEPEDFAVYYCQQSYSTPSFGQGTRLEIT
notes: Point mutant of M4 tested as Fab; Fab constant parts not specified
fold improvement in EC50 compared to germline E06 as Fabs (human VEGF165 [1]): > 10 fold

B2: J05 IgG (antibody, V domains shown)
VH: EVQLLESGGGLVQPGGSLRLSCAASGFTFSWYEMYWVRQAPGKGLEWVSSISPSGGWTMYADSVKGRFTISRDNSKNTLYLQMNSLRAEDTAVYYCATPLYSSDGLSAGDIWGQGTMVTVSS
VL: EIVLTQSPATLSLSPGERATLSCRASQSVSSSYLAWYQQKPGQAPRLLIYGASSRATGIPDRFSGSGSGTDFTLTISRLEPEDFAVYYCQQSYRTPSFGQGTRLEITR
EC50 (mouse VEGF164 [2]): 0.046 nM
EC50 (human VEGF121): 4.97 nM
FoldΔ KD vs. EO6-wt (human VEGF165 [3]): 11 fold
Kd (human VEGF165 [3]): 0.22 nM

B4: H1DR IgG (antibody, V domains shown)
VH: EVQLLESGGGLVQPGGSLRLSCAASGFTFSWYEMYWVRQAPGKGLEWVSSISPSGGWTMYADSVKGRFTISRDNSKNTLYLQMNSLRAEDTAVYYCATPLYSSDGLSAGDIWGQGTMVTVSS
VL: EIVLTQSPATLSLSPGERATLSCRASQSVHSSYLAWYQQKPGQAPRLLIYGASSRATGIPDRFSGSGSGTDFTLTISRLEPEDFAVYYCQQDYRTPSFGQGTRLEITR
EC50 (mouse VEGF164 [2]): 0.043 nM
EC50 (human VEGF121): 0.017 nM
EC50 (read off the curve) (human VEGF165 [4]): ~0.1 µg/mL

B5: J05 Fab (Fab, V domains shown)
VH: EVQLLESGGGLVQPGGSLRLSCAASGFTFSWYEMYWVRQAPGKGLEWVSSISPSGGWTMYADSVKGRFTISRDNSKNTLYLQMNSLRAEDTAVYYCATPLYSSDGLSAGDIWGQGTMVTVSS
VL: EIVLTQSPATLSLSPGERATLSCRASQSVSSSYLAWYQQKPGQAPRLLIYGASSRATGIPDRFSGSGSGTDFTLTISRLEPEDFAVYYCQQSYRTPSFGQGTRLEIT
notes: Point mutant (VL S94R) of M4 tested as Fab; Fab constant parts not specified; also called point mutant J05
fold improvement in EC50 compared to germline E06 as Fabs (human VEGF165 [1]): > 10 fold
fold improvement of binding over E06 (human VEGF165 [1]): ~25 fold

Second part, the binder after the results:

fold improvement in EC50 compared to germline E06 as Fabs (human VEGF165 [1]): > 10 fold
B3: I20 Fab (Fab, V domains shown)
VH: EVQLLESGGGLVQPGGSLRLSCAASGFTFSWYEMYWVRQAPGKGLEWVSSISPSGGWTMYADSVKGRFTISRDNSKNTLYLQMNSLRAEDTAVYYCATPLYSSDGLSAGDIWGQGTMVTVSS
VL: EIVLTQSPATLSLSPGERATLSCRASQSVSSSYLAWYQQKPGQAPRLLIYGASSRATGIPDRFSGSGSGTDFTLTISRLEPEDFAVYYCQQDYSTPSFGQGTRLEIT
notes: as for B1

binding result (human VEGF165 [5]): binds
B6: E06 germline M4 Fab (Fab, V domains shown)
VH: EVQLLESGGGLVQPGGSLRLSCAASGFTFSWYEMYWVRQAPGKGLEWVSSISPSGGWTMYADSVKGRFTISRDNSKNTLYLQMNSLRAEDTAVYYCATPLYSSDGLSAGDIWGQGTMVTVSS
VL: EIVLTQSPATLSLSPGERATLSCRASQSVSSSYLAWYQQKPGQAPRLLIYGASSRATGIPDRFSGSGSGTDFTLTISRLEPEDFAVYYCQQSYSTPSFGQGTRLEIT
notes: Fab; D1E/Q3V/M4L/T86V in the VL against E06; Fab constant parts not specified; also called germline clone M4; germline E06

EC50 (mouse VEGF164 [6]): 0.049 nM
EC50 (human VEGF165 [7]): 0.048 nM
EC50 (mouse VEGF164 [2]): 0.03 nM
EC50 (read off the curve) (human VEGF165 [4]): ~0.07 µg/mL and ~0.06 µg/mL
Kd (human VEGF165 [3]): 2.52 nM
B7: E06 full length IgG (antibody, V domains shown)
VH: EVQLLESGGGLVQPGGSLRLSCAASGFTFSWYEMYWVRQAPGKGLEWVSSISPSGGWTMYADSVKGRFTISRDNSKNTLYLQMNSLRAEDTAVYYCATPLYSSDGLSAGDIWGQGTMVTVSS
VL: DIQMTQSPATLSLSPGERATLSCRASQSVSSSYLAWYQQKPGQAPRLLIYGASSRATGIPDRFSGSGSGTDFTLTISRLEPEDFATYYCQQSYSTPSFGQGTRLEITR
notes: also called antibody E06; Wt (E06)
